Reference: publication PMC6232189, “Expression optimization of recombinant cholesterol oxidase in Escherichia coli and its purification and characterization” (AMB Express, 2018)

Substrate: CC(C)CCC[C@@H](C)[C@H]1CC[C@H]2[C@@H]3CC=C4C[C@@H](O)CC[C@]4(C)[C@H]3CC[C@]12C
Assay: purified protein
Format: biochemical, Streptomyces sp. SA-COO
Conditions: 0-1 mM cholesterol, 0.1 M potassium phosphate pH 7, 25 °C

B1: ChOA (cholesterol oxidase from Streptomyces sp. SA-COO) (Streptomyces sp. SA-COO) (protein)
chain: DNGGYVPAVVIGTGYGAAVSALRLGEAGVQTLMLEMGQLWNQPGPDGNIFCGMLNPDKRSSWFKNRTEAPLGSFLWLDVVNRNIDPYAGVLDRVNYDQMSVYVGRGVGGGSLVNGGMAVEPKRSYFEEILPRVDSSEMYDRYFPRANSMLRVNHIDTKWFEDTEWYKFARVSREQAGKAGLGTVFVPNVYDFGYMQREAAGEVPKSALATEVIYGNNHGKQSLDKTYLAAALGTGKVTIQTLHQVKTIRQTKDGGYALTVEQKDTDGKLLATKEISCRYLFLGAGSLGSTELLVRARDTGTLPNLNSEVGAGWGPNGNIMTARANHMWNPTGAHQSSIPALGIDAWDNSDSSVFAEIAPMPAGLETWVSLYLAITKNPQRGTFVYDAATDRAKLNWTRDQNAPAVNAAKALFDRINKANGTIYRYDLFGTQLKAFADDFCYHPLGGCVLGKATDDYGRVAGYKNLYVTDGSLIPGSVGVNPFVTITALAERNVERIIKQDVTAS
  Km: 13 µM
